The assay has as its target mouse teneurin-3 A1B1 complete extracellular domain (ECD, residues 342-2715) (mouse) (UniProt Q9WTS6). Kind of assay: SEC-MALS; purified ECD, 0.5 mg/mL in 20 mM HEPES pH 7.8, 150 mM NaCl, 2 mM CaCl2, Superose6 Increase 10/300 GL; also SDS-PAGE with or without beta-mercaptoethanol; covalent (disulphide-linked) dimer. (SEC sorts molecules by how far they enter the pores of the column.)

The term stoichiometry N denotes the number of molecules, sites or subunits per partner or assembly.

With “mouse teneurin-3 A1B1 complete extracellular domain (ECD, residues 342-2715), Q9WTS6-1 342-2715”, the stoichiometry N amounted to 2.

For the origin of these results see publication PMC11058771.
